Data as given in the nanobody polyreactivity screen of Harvey et al. (2022).

Assay: yeast display, Sf9 membrane polyspecificity reagent, FACS + sequencing; frameworks hold sequencing errors
Procedure, shortened: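 Polyreactivity labels are assigned by the sorting gate from which each nanobody was recovered. The gates were low and high (top ~1%), set on anti-HA fluorescence for expression and streptavidin fluorescence for reagent binding. Before sorting, galactose-induced (36–48 hours) yeast display cells were stained for 1 hour at 4 °C with 10% biotinylated, detergent-solubilized Sf9 membrane reagent.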

Sequence | polyreactivity (PSR sort gate)
QVQLVESGGGLVQAGGSLRLSCAASGSIISFYAMGWYRQAPGKEREMVAVISDIGGSTYYADSVKGRFTISRDNAKNTDYLEMNSLKPEDTAVYYCAAGCHARTWYAYYYWGQGTQVTVSS | low polyreactivity
QVQLVESGGGLVQAGGRLRISCAASGSTFQPYAMGWYRQAPGKERELVAAISWRGGSTYYADSVKGRFTISRDNAKNTVYLQMNSLKPEDTAVSYCAAYFYFRRGTDYDYWGQGTQVTVSS | high polyreactivity
HVQLQESGGGLVQAGGSLRLSCAASGYISHADEMGWYRQAPGKEHELVASISNGGSTNYADSVKGRFTISRDNAKNTVYLQMNSLKSEVTAVYYCAAWTGQVDFHYYWGQGTQVSVSS | low polyreactivity
QVQLVESGGVLVQAVGSLRLSCAASGSIFHDYALGWYRQAPGKEREMVAAISSGSGSTSYADSVKGRFTISRDNAKNTVYLQMNSLKPEATAVYYCNADADAVPFAFRGSYDYWGQGTQVTVSS | low polyreactivity
QVQLVESGGGLVQAGGSLRLSCAASGFTLGYYTMGWYRQAPGKERELVAAIRSNGGSTYYADSVKGRFTISRDNAKNTVYLQMNSLKPEDTAVYYCAARRWRYVGTRYDYWGQGTQVTVSS | high polyreactivity
QVQLVESGGGLVQAGGSLRVSCAASGSIFDVYTMGWYRQAPGKERELVAAISKRSGRTYYADSVKGRFTISRDNAKNTVYLQMNSLKPEDTAVYYCAKDFGYWGQGTQVTVSS | low polyreactivity
QVQQQVSGGGLVQAGGSLRLSCAASGYIFQNVPMGWNRQAPGKERDLVAGIDNGTSTNYADSVNGRFTISRDNAKNTVYLQMNSLKPEVTAVYYCAAAGQADDTLGYWGQGTLVTVSS | low polyreactivity
QDQLVESGGGLVQAGGSLRLSCAASGRIFRPNTMGWYRQAPGKERELVASISLSAGSTYYADSVKGRFTISRDNAKNTVYLQMNSLKPEDTAVYYCNATYLSWYRYKYNYWGQGTQVTVSS | low polyreactivity
QVQLLDSGGGLVQAGGSLRLSCDASGRTIDIYAMGWYRQAPGKERELVAAISSGGSTYYADSVKGRFTISRDNAKNTVYLQMNSLKPEDTAVYYCAVRWYDQVSRRGIGYYWGQGTQVTVSS | low polyreactivity
QVQLVESGGGLVQAGGSLSLSCAASGRTFYRNAMGWYRQAPGKERELVAAISSDDSTNYADSVKGRFTISRDNAKNTVYLQMNSLKPEDTAVYYCNADYYYGYEYDYWGQGTQVTVSS | low polyreactivity
QVQLVESGGGLVQAGGSLRLSCAASGRIFTYNVMGWYRQAPGKERELVAAIYSSGVRTSYADSVKGRFTISRDNAKNTVYLHMNSLKPEDTALYYCAADKRYHYGLLHDPSYYYDYWGQGTQVTVSS | low polyreactivity
QVQLVESGGGLVQAGGSLRLSCAASGRTFGTYAMGWSRQAPGKERELVAAITWRTGNTYYADSVKGRFTISRDNAKNTVYLQMNSLKPEDTAVYYCAKTSSGRKFYWGQGTQVTVSS | high polyreactivity
QVQLVESGGGLVQAGGSLRLSCAASGSIFLPYAMGWNRQAPGKERELVAAITWSGGRTYYADSVKGRFTISRDNAKNTVYLQMNSLKPEDTAVYYCAADDSEGFDYWGQGTQVTVSS | high polyreactivity
QVHLVESGGGLVQAGGSLRLSCAASGSIFQPYAIRWYRQAPGKERELVAAISSSGGSTTYADSVKGRFTISRDNAKNTVYLQMTSLKPEDTAVYYCAADSADDMGYWGQGTQVTVSS | low polyreactivity
QVQLVESGGGLVQAGGSLRLICAASGFTLTRNAMGWYRQAPGKESELVAAISWSGGTTYYADSVKGRFTISRDNAKNTVYLQMNSLKPEDTAFYYCNTASWRDQYYYWGQVTQVTVSS | high polyreactivity
QVQLVESGGGLVQAGGSLRLSCAASGSTFDGNAMGWYRQAPGKERELVAAISSSGGSTYYADSVKGRFTISRDNAKNTVYLQMNSLKPEDTAVYYCAAGGWSTLLSWFYRRYDYWGQGTQVTVSS | high polyreactivity
QVQLVESGGGLVQAGGSLRLSCAASGRILQFNAMGWYRQATGKERELVAAISTSGGRTYYADSVKGRFTISRDNAKNTVYLQMISLKPEDTAVYDCNAVAYKLMGYWGQGTQVTVSS | high polyreactivity
QVQLVESGGRLVQAGGSLRLSCSASGSTFRRNAMGWYRQAPGKERELVAAISWSSTRTYYADSVKGRFTISRDNAKNTVYLQMNSLKPEDTAVYYCAADSYGGGFQLYSYVSGLYYWGEGTQVTVSS | high polyreactivity
QVQLVESGGGLVQAGGSLRLSCAASGITFSQYAMGWYRPAPGKERELVAAISWSGVRTYYADSVKGRFTISRDNSKNTVYLQMNSLKPEDTAVYYCAAVPVYYGYDYWGQGTQVTVSS | high polyreactivity
QVQLVESGGGLVQAGCSLRLSCAASGFTFDQYAMGWYRQAPGKEREFVAGNSYGRGRTYYADSVKGRFTISRDNAKNNFYLQMNSVKPEVTAVYYCAADGVYRYNYPYLYTYDYWGQGTQVTVSS | low polyreactivity
QVQLVESGGGLVQAGGSLRLSCAASGFIFRGYGMGWYRQAPGKERELVASITTGGRTNYADSVKGRFTISRDNAKNTVYVQMNSLKPEDTAVYYCAATYYLRLRRPYWQGFNYWGQGTQVTVSS | high polyreactivity
QVQLVESGGGLVQAGGSLRLSCAASGLTLYRYAMGWYRQAPGKERELVAGISWGGGSTYYADSVKGRFTISRDNAKNTVYLQMNSLKPEDTAVYYCAAGRLLYIPRYYYWGQGTQVTVSS | high polyreactivity

Sequence | polyreactivity (PSR sort gate)
QVQLVESGGGLVQAGGSLRLSCAASGSTFVLYAMGWYRQAPGKERELVATISSGGSTYYADSVKGRFTISRDNAKNTVYLQMNRLKPEDTAVYYCAASYSRFVDWIGDPGYDYWGQGTQVTVSS | low polyreactivity
QVQLGESGGGLVQAGGTLRVSCAPSGITFYGYAMGWYRQAPGKERELVAAINRGGTGTYYADSVKGRFTISRDNAKNTVYLQMNSLKPEDTAVYYCNKAGYPIADPTAGKRQFDNWGHGTQVTVSS | low polyreactivity
QVQLVESGGGLVQAGGSLRLSCAASGSTFRYNVMGWYRQAPGKERELVATISYSGGSTNYADSVKGRFTISRDNAKNSVYLEIKSLKPVDTAVYYCAARYLYPFYGYWWYDYWGQGTQVTVSS | high polyreactivity
QVQLVESGGGLVQAGGSLRLSCAASGSTFEANAMGWYRQAPGNERELVAVITWTGGSTYYADSVKGRFTISRDNAKNTVYLQMNSLKPEDTAVYYCAADGVVPGRFFWPAHEYDYWGQGTQVTVSS | low polyreactivity
QVQLVESGGGLVQEGGSLRLSCAASGSILGRYAMGWYRQAPGKERELVAAITSSGGRTYYADSVKGRFTISRDNAKNTVYLQMNSLKREDTAVYYCNAVSWWYGYDYWGQGTQVSVSS | high polyreactivity
QVQLVESGGGLVQAGGSLRLSCAASGSIFSTNAMGWYRQAPRKERELVAAITYSGSRTYYADSVKGRFTISRDNAKNTVYLQMNSLKPEDTAVYYCAADTSWYSWWFDYWGQGTQVTVSS | low polyreactivity
HVQLVESGGGLVQAGGSLRLSCAASGRIFFRYAMGWYRQAPGKERELVAAISYSGGSTYYADSVKGRFTISRDNAKNTVYLQMNSLKPEDTAVYYCAAPLLRDLRSPYSYNYWGQGTQVTVSS | low polyreactivity
QVQLVESGGGLVQAGGSLRLSCAASGTTFYYYAMGWYRQAPGKEREFVAAIRFSGSRTYYADSVKGRFPISRDNAKNTVYLQMNSLIPEDTAVYYCARATLPSVSYYRKLFDYWGQGTHVTVSS | high polyreactivity
QVQLVESWGGLVQAGGSLRLSCAASGLIFVGNAMGWYRQAPGKERELVAAISSRGGRTYYADSVKGRFTISRDNAKNTVYLQMNSLKPEDTAVYYCAARVWRYPYYWGQGTQVTVSS | high polyreactivity
QVQLVESGGGLVQAGGSLRLSCAASGQTFPFYTKGWYRQAPGKERELVGAISRRGGSTYYADSVKGRFTISRDNAKYTVYLQMKSLKPEDTAVYYCAADKYSWYDYWGQGTQVTVSS | low polyreactivity
QVQLVESGGGLVQAGGSLRLSCAASGGIFSRNAMGWSRQAPGKERELVAAISSGGSTYYADSVKGRFTISRDNAKNTVYLQMNTLKPEDTAVYYCAAKRSGQRTLLGYWGQGTQVTVSS | high polyreactivity
QVQLVESGGGLVQAGGSLRLSCAASGSSFDPYAMGWYRQAPGKERELVATITYSGGRTYYADSVKGRFTISRDNAKNTVYLQMNSLKPEDTAVYYCAADWDPGYYVQYGYDYWGQGTQVTVSS | low polyreactivity
QVQLVESGGGLVQAGGSLRLSCAASGRILPLYAMGWYRQAPGKERELVARIDSGGSTNYADSVKGRFTISRDNAKNTVYLQMNSLKPEDTAVYYCAAVVTAQAYAYFTYGYDYWGQGTQVTVSS | low polyreactivity
QVQLVESGGGLVQAGGSLRLSCAASGRIFGLNAMGWYRQAPGQERELVAAIDIIGGSTYYADSVKGRFTISRDNAKNTVYLQMNSLKPEDTAVYNCAAEGDFWRFVEYDYWGQGTQVTVSS | low polyreactivity
QVQLVESGGGLVQAGGSLRLSCAASGITFSRNGMGWYRQAPGKERELVAAISTSGDSTDYADSVKGRFTISRDNAKNTVYLQMNSLKPEDTAVYYCATEWSYYNYGYDYWGQGTQVTVSS | low polyreactivity
QVQLGESGGGLVQAGGSLRLSCAASGFIFRAYAMGWYRQAPGKERELVASISSRGGSTYYADSVKGRFTISRDNAKNTVYLQMNSLKPEDTAVYYCNAVYTYFPGWKYDYWGQGTQVTVSS | high polyreactivity
QVQLVESGGGLVQGGGSLRLSCAASGRIFTRYTMGWYRPAPGKERELVAASTKRADRTNYADSVKGRFTISRDNAKNTVYLQMNSLKPEDTAVYSCNDAAFSQLRVRYDYWGQGTQVTVSS | low polyreactivity
QVQLVESGGGLVQAGGSLRLSCGASGNIFTRNAMGWSRQAPGKERECVAAITESGASTYYADSVKGRFTISRDNAKNTVYLQMNSLKPEDTAVYYCNARLSRWRRRPYDYWGQGTQVTVSS | high polyreactivity
QVQLVESGGGLVQAGGSLRLSCAASGRIFHYNAMGWYRQAPGKERELVAAISTGGSTNYADSVKGRFTISRDNAKNTVYLQMNSLKPEDTAVYYCNADLYVDPWTYFGYDYWGQGTQVTVSS | low polyreactivity
QVQLLESGGGLDQARGSLRLSCAASGITFEYNAMGWYRQAPGKERELVAAISLSSGSTYYADSVKGRFTISRDNAKNTVYLQMNSLKPEDTAVYYGNADTIIYEGGYWGQGTQVTVSS | low polyreactivity
QVQLVESGGGLFQAGRSLRIRCAASGRILNVYHMGWYRQAPGKERELVAAISSGANTNYAESVKGRFTISRDNAKNTVDLQMNSLKPEDTEVYFCNTEQFYDYDYTFDYWGQGTQVTVSS | low polyreactivity
